Here are results for 16 molecules from patent US20240002477A1 (UNIVERSITY OF CHICAGO, published 2024).

Experiment [1] deals with SARS-CoV-2 spike receptor-binding domain (SARS-CoV-2, UniProt P0DTC2 319-541). The experiment in a line: mAb table, Specificity column (recombinant IgG1; ELISA). On the technique in general: An ELISA detects its analyte on a solid surface through an enzyme-linked reagent.
The target in another experiment is T1, SARS-CoV-2 ORF8 protein (SARS-CoV-2, UniProt P0DTC8 16-121).
T1 construct: domain: Ig-like domains; also called open reading frame 8
The description is as above.

T1 sequence (P0DTC8 16-121, tags left off): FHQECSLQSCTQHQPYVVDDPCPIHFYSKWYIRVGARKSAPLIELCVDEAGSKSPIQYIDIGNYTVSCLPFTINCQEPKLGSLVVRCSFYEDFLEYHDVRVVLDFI

B1: S20-74 (antibody, V domains shown)
VH: QVQLQESGPGLVKPSETLSLTCTVSGGSISSHYWSWIRQPPGKGLEQIGYMYYSGSTNYNPSLKSRVIISVDTSKNQFSLKLSSVTAADTAVYYCAGRDQLLYGADGFDIWGQGTMVTVSS
VL: QSALTQPPSASGSPGQSVTISCTGTSSDVGGYNYVSWYQQHPGKAPKLMIYEVSKRPSGVPDRYSGSKSGNTASLTVSGLQAEDEADYYCSSYAGSSNHVIFGGGTKLTVL
notes: recombinant human IgG1
As for B1, the binding result in experiment [1] is given as “binds”.

B2: S144-1079 (antibody, V domains shown)
VH: QVQLVQSGAEVKKPGSSVKVSCKASGDTFGSYSITWVRQAPGQGLEWMGRIIPVLGIANYAQKFQGRVTITADKSTSTAYMELSSLRSEDTAVYYCAGGGCSGGNCYSWYNWFDPWGQGSLVTVSS
VL: EIVLTQSPGTLSLSPGERATLSCRASQSVSSNYLAWYQQKPGQAPRLLIYGASSRATGIPERFSGSGSGTDFTLTISRLEPEDFAVYYCQQYGRSPYTFGQGTKLEIK
notes: recombinant human IgG1
Regarding B2, the binding result in experiment [1] is “binds”.

B3: S24-1384 (antibody, V domains shown)
VH: EVQLVESGGGLVQPGGSLRLSCAVSGFTFSSYSMNWVRQAPGKGLEWVSYISSSSSIIYYADSVKGRFTISRDNAKNSLYLQMNSLRAEDTAVYYCARDFLDYSRSYSYGMDVWGQGTTVTVSS
VL: SYVLTQPPSVSVAPGQTARITCGGDNIGSKNVHWYQQKPGQAPVLVVFDDSDRPSGIPERFSGSNSGNTATLTISRVEAGDEADYYCQVWDSSSDHYVVFGGGTKLTVL
B3: in experiment [1], the binding result is on record as “binds”.

B4: S564-152 (antibody, V domains shown)
VH: QVQLVESGGGVVQPGRSLRLSCAASGFTFSYYGMHWVRQAPGKGLEWVAVIWYDGSNKHYADSVKGRFTISRDNSKNTLYLQMNSLRAEDTAVYYCAKNAAPYCSGGSCYGTYFDYWGQGTLVTVSS
VL: DIQMTQSPSSLSASVGDRVTITCQASQDINNYLNWYQQKPGKAPKLLIYDASNLETGVPSRFSGSGSGTDFTFTISSLQPEDIATYYCQQYDNVPPHTFGQGTKLEIK
notes: recombinant human IgG1
Take B4: in experiment [1], the binding result is given as “binds”.

B5: S144-69 (antibody, V domains shown)
VH: EVQLVQSGAEVKKPGESLKISCKGSGYSFTSYWIGWVRQMPGKGLEWMGIIYPGDSDTRYSPSFQGQVTISADKSITTAYLQWSSLKASDTAMYYCARTQTTNWFDSWGQGTLVTVSS
VL: DIQMTQSPSTLSVSVGDRVTITCRASQSVSSWLAWYQQKPGKAPKLLIYDASSLESGVPSRFSGSGSGTEFTLTISSLQPDDFATYYCQQYNSFYTFGQGTKLEIK
notes: recombinant human IgG1
Turning to B5, in experiment [1], the binding result is listed as “binds”.

B6: S24-636 (antibody, V domains shown)
VH: EVQLVESGGGLVQPGGSLRLSCAASGFTLSSYWMSWVRQAPGKGLEWVANIKQDGSEKYYVDSVKGRFTISRDNAKNSLYLQMNSLRAEDTAVYYCARDLTATWFDPWGQGTLVTVSS
VL: QTVVTQEPSFSVSPGGTVTLTCGLSSGSVSTSYYPSWYQQTPGQAPRTLIYSTNKRSSGVPDRFSGSILGNKAALTITGAQADDESDYYCVLYMGSGMSVFGGGTKLTVL
As for B6, the binding result with SARS-CoV-2 ORF8 protein is “binds”.

B7: S24-1378 (antibody, V domains shown)
VH: EVQLVESGGGLVQPGGSLRLSCAASGFTVSSNYMSWVRQAPGKGLEWVSVIYSGGSTYYADSVKGRFTISRHNSKNTLYLQMNSLRAEDTAVYYCAREGYCTNGVCYRHAFDIWGQGTMVTVSS
VL: QTVVTQEPSFSVSPGGTVTLTCGLSSGSVSTSYYPSWYQQTPGQAPRTLIYSTNTRSSGVPDRFSGSILGNKAALTITGAQADDESDYYCVLYMGSGISVFGGGTKLTVL
notes: recombinant human IgG1
Consider B7, for which the binding result with SARS-CoV-2 ORF8 protein is “binds”.

B8: S144-509 (antibody, V domains shown)
VH: EVQLVQSGAEVKKPGESLKISCKGSAYTFTTYWIGWVRQMPGKGLEWMGIIYPGDSDTRYSPSFQGQVTISADKSISTAYLQWSSLKASDTAMYYCARLLLVAGPFDYWGQGTLVTVSS
VL: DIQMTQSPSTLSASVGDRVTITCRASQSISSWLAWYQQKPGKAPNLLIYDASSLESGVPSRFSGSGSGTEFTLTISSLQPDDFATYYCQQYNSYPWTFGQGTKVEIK
notes: recombinant human IgG1
On to B8, for which the binding result in experiment [1] is “binds”.

B9: S144-67 (antibody, V domains shown)
VH: EVQLVQSGAEVKKPGESLKISCKGSGYSFTTYWIAWVRQMPGKGLEWVGIIYPDDSDTRYSPSFQGQVTISADKSIGTAYLQWSSLKASDTAMYYCARGQYYDFWSGAGGVDVWGQGTTVTVSS
VL: QSVLTQPPSVSGAPGQRVTISCTGSRSNIGAGYDVQWYQQVPGTAPKLLISGNSNRPSGVPDRFSGSKSGTSASLAITGLQAEDEADYYCQSYDSSLSGLRVFGGGTKLTVL
notes: recombinant human IgG1
For B9, the binding result in experiment [1] is reported as “binds”.

B10: S144-1406 (antibody, V domains shown)
VH: QVQLVQSGAEVKKPGASVKVSCKASGYTFTTYAMHWVRQAPGQRLEWMGWINAGNGNTKYSQNFQGRVTITRDTSASTAYMELSSLRSEDTAVYYCASLVGGDSSSWYDYMDVWGKGTTVTVSS
VL: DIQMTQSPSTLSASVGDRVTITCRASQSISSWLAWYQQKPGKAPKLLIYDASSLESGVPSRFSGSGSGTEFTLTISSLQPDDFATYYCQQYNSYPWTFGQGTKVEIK
notes: recombinant human IgG1
For B10, the binding result in experiment [1] was “binds”.

B11: S144-466 (antibody, V domains shown)
VH: EVQLVQSGAEVKKPGESLKISCKGSGYRFTRYWIGWVRQMPGKGLEWMGIIYLGDSETRYSPSFQGQVTISADNSISTAYLQWSSLKASDTAMYYCARSSNWNYGDYWGQGTLVTVSS
VL: DIQMTQSPSTLSASVGDRVTITCRASQSITSWLAWYQQKSGKAPKLLIYDASSLESGVPSRFSGSGSGTEFTLTISSLQPDDFATYYCQQYNSYPWTFGQGTKVEIK
notes: recombinant human IgG1
Turning to B11, the binding result in experiment [1] was “binds”.

B12: S24-278 (antibody, V domains shown)
VH: QVQLVQSGAEVKKPGASVKVSCKASGYTFTGYYMHWVRQAPGQGLEWMGWINPNSGDTNYAQKFQGWVTMTRDTSLSTAYMELSRLKSDDTAVYYCARVGVGEYSGRHYYYYGMDVWGQGTTVTVSS
VL: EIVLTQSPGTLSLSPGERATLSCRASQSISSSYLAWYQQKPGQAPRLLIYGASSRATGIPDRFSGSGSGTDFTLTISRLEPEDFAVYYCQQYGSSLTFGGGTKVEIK
notes: recombinant human IgG1
For the molecule B12, the binding result with SARS-CoV-2 ORF8 protein is given as “binds”.

B13: S24-1224 (antibody, V domains shown)
VH: QVQLVQSGAEVKKPGASVRVSCKASGYTFTSYYIYWVRQAPGQGLEWMGVINPSGGSTSYAQKFQGRVTLTRDTSTSTVYMDLSSLRSEDTAVYYCARDPIMWEVVTRGRGNWFDPWGQGTLVTVSS
VL: QSVLTQPPSVSGAPGQRVTIPCTGSSFNIGAGYDVHWYQQLPGTAPKLLIFGNSNRPSGVPDRFSGSRSGTSASLAITGLQAEDEADYYCQSYDSSLSGVVFGGGTTLTVL
notes: recombinant human IgG1
Consider B13, for which, in experiment [1], the binding result is recorded as “binds”.

B14: S24-1345 (antibody, V domains shown)
VH: QLQLQESGPGLVKPSETLSLTCTVSGGSISSSSYYWGWIRQPPGKGLEWIGSIYYSGSTYYNPSLKSRVTISVDTSKNQFSLKLSSVTAADTAVYYCARRIRRPTSEVVITYVFDYWGQGTLVTVSS
VL: AIQLTQSPSSLSASVGDRVTITCRASQGISSALAWYQQKPGKAPKLLIYDASSLESGVPSRFSGSGSGTDFTLTISSLQPEDFATYYCQQFNSYLTFGGGTKVEIK
Turning to B14, the binding result with SARS-CoV-2 ORF8 protein was “binds”.

B15: S564-14 (antibody, V domains shown)
VH: EVQLVESGGGLVQPGGSLRLSCAASGLTFSSYWMSWARQAPGKGLEWVANIKKDGSEKYYVDSVKGRFTISRDNAKNSLYLQMNSLRVEDTAVYYCASEPPHYGGNSGAEYFQHWGQGTLVTVSS
VL: SYVLTQPPSVSVAPGKTARITCGGNNIGSKSVHWYQQRPGQAPVLVIYYDSDRPSGIPERFSGSNSGNTATLTISRVEAGDEADYYCQVWDSSSDHHYVFGTGTKVTVL
notes: recombinant human IgG1
As for B15, in experiment [1], the binding result is on record as “binds”.

B16: S564-138 (antibody, V domains shown)
VH: QVLLVQSGAEVKKPGASVKVSCKASGYTFTGYYLHWVRQAPGQGLEWMGWINPISGGTNYAQNFQDRVTMTRDTSIITAYMELSRLRSDDTAVYYCARLAYYYDSSAYRGAFDIWGQGTMVTVSS
VL: QSALTQPASVSGSPGQSITISCTGTSSDVGGYNYVSWYQQHPGKAPKLMIYEVSNRPSGVSDRFSGSKSGNTASLTISGLQAEDEADYYCSSYTSSSTYVFGTGTKVTVL
notes: recombinant human IgG1
Take B16: the binding result in experiment [1] is reported as “binds”.
